The target of the series is T1, FLAG-TCF4, full length human TCF4 expressed from pFLAG-CMV-4, Q9NQB0.
T1 chain: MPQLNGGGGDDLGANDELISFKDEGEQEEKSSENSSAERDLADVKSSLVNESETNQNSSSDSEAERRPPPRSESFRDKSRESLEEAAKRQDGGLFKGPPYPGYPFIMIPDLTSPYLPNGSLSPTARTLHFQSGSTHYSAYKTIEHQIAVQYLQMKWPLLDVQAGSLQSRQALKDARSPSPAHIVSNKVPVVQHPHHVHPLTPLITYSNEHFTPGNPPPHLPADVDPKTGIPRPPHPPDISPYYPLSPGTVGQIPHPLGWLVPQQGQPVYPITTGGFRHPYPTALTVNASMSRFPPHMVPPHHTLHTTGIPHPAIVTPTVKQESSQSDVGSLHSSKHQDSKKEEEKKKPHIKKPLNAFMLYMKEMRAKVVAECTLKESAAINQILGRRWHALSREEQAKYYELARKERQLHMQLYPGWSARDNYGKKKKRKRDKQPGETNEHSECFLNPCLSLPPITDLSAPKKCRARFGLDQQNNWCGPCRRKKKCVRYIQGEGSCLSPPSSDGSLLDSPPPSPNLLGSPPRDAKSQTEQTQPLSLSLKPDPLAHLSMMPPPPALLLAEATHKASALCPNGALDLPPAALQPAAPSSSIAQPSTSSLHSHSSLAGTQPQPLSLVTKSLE

B1: HA-TNIK, wild-type human TNIK full length expressed from pCIneo-HA-TNIK (protein)
chain: MASDSPARSLDEIDLSALRDPAGIFELVELVGNGTYGQVYKGRHVKTGQLAAIKVMDVTGDEEEEIKQEINMLKKYSHHRNIATYYGAFIKKNPPGMDDQLWLVMEFCGAGSVTDLIKNTKGNTLKEEWIAYICREILRGLSHLHQHKVIHRDIKGQNVLLTENAEVKLVDFGVSAQLDRTVGRRNTFIGTPYWMAPEVIACDENPDATYDFKSDLWSLGITAIEMAEGAPPLCDMHPMRALFLIPRNPAPRLKSKKWSKKFQSFIESCLVKNHSQRPATEQLMKHPFIRDQPNERQVRIQLKDHIDRTKKKRGEKDETEYEYSGSEEEEEENDSGEPSSILNLPGESTLRRDFLRLQLANKERSEALRRQQLEQQQRENEEHKRQLLAERQKRIEEQKEQRRRLEEQQRREKELRKQQEREQRRHYEEQMRREEERRRAEHEQEYIRRQLEEEQRQLEILQQQLLHEQALLLEYKRKQLEEQRQAERLQRQLKQERDYLVSLQHQRQEQRPVEKKPLYHYKEGMSPSEKPAWAKEVEERSRLNRQSSPAMPHKVANRISDPNLPPRSESFSISGVQPARTPPMLRPVDPQIPHLVAVKSQGPALTASQSVHEQPTKGLSGFQEALNVTSHRVEMPRQNSDPTSENPPLPTRIEKFDRSSWLRQEEDIPPKVPQRTTSISPALARKNSPGNGSALGPRLGSQPIRASNPDLRRTEPILESPLQRTSSGSSSSSSTPSSQPSSQGGSQPGSQAGSSERTRVRANSKSEGSPVLPHEPAKVKPEESRDITRPSRPASYKKAIDEDLTALAKELRELRIEETNRPMKKVTDYSSSSEESESSEEEEEDGESETHDGTVAVSDIPRLIPTGAPGSNEQYNVGMVGTHGLETSHADSFSGSISREGTLMIRETSGEKKRSGHSDSNGFAGHINLPDLVQQSHSPAGTPTEGLGRVSTHSQEMDSGTEYGMGSSTKASFTPFVDPRVYQTSPTDEDEEDEESSAAALFTSELLRQEQAKLNEARKISVVNVNPTNIRPHSDTPEIRKYKKRFNSEILCAALWGVNLLVGTENGLMLLDRSGQGKVYNLINRRRFQQMDVLEGLNVLVTISGKKNKLRVYYLSWLRNRILHNDPEVEKKQGWITVGDLEGCIHYKVVKYERIKFLVIALKNAVEIYAWAPKPYHKFMAFKSFADLQHKPLLVDLTVEEGQRLKVIFGSHTGFHVIDVDSGNSYDIYIPSHIQGNITPHAIVILPKTDGMEMLVCYEDEGVYVNTYGRITKDVVLQWGEMPTSVAYIHSNQIMGWGEKAIEIRSVETGHLDGVFMHKRAQRLKFLCERNDKVFFASVRSGGSSQVFFMTLNRNSMMNW
B1: the “serine phosphorylation of TCF4 (immunoprecipitation with anti-TCF4, immunoblot with anti-phospho-serine antibody)” value was “the serine phosphorylation band of TCF4 was detected”.

For the origin of these results see US20090215081.
